Data on three molecules can be found in US20210047395A1 (Hoffmann-La Roche, published 2021).

For assay [1], the target named is T1, VEGF-121-His (inhouse production) (human, UniProt P15692 207-395).
T1 construct: Treated as one molecule; also called hVEGF-A121; not shown: His tag
T1 sequence: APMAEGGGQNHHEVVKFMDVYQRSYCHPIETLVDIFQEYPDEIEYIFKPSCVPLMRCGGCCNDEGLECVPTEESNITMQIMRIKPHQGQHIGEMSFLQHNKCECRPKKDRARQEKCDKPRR
In words: VEGF:VEGF-R1 inhibition ELISA (Example 4, as Example 2): 0.34 nM VEGF-121-His pre-incubated with the Fab, then added to plate-bound biotinylated VEGF-R1, anti-His POD detection; blocked partner: VEGF-R1. (In general: In an ELISA, binding on a coated surface is turned into a signal by an enzyme label.)

For assay [2], the target named is T2, VEGF (as used in the Biacore active concentration test of Example 6) (Homo sapiens (Human), UniProt P15692 27-147, VEGF is a disulfide-linked homodimer; one protomer is given).
T2 sequence: T1 sequence
In words: Biacore, normalized to unstressed aliquot; Fab stressed 2 w/37 C/pH 7.4. As to the method: (§1) Antibody samples were formulated in 20 mM His/HisCl, 140 mM NaCl, pH 6.0, and were split into three aliquots: one aliquot was re-buffered into PBS, respectively, and two aliquots were kept in the original formulation. The PBS aliquot and one His/HisC1 aliquot were incubated for 2 weeks (2 w) at 40° C. (His/NaCl) or 37° C. (PBS) in 1 mg/ml, the PBS sample was incubated further for total 4 weeks (4 w). The third control aliquot sample was stored at −80° C.
For orientation: SPR reads the build-up and loss of mass on a sensor chip optically.

Assay [3] addresses T2, VEGF (as used in the Biacore active …). In words: Biacore, normalized to unstressed aliquot; Fab stressed 4 w/37 C/pH 7.4. As to the method:
as §1

Assay [4] addresses T1, VEGF-121-His (inhouse production). In words: SPR, hVEGF-A121 captured by anti-His antibody, 25 C. The method, then: (§2) An anti-His capturing antibody (GE Healthcare 28995056) was immobilized to a Series S Sensor Chip C1 (GE Healthcare 29104990) using standard amine coupling chemistry resulting in a surface densitiy of 500-1000 resonance units (RU). […] The surface was regenerated by injecting 10 mM Glycine pH 1.5 for 60 s. […] Rate constants were calculated using the Langmuir 1:1 binding model within the Biacore Evaluation software.
(§3) The affinity of the antibodies was determined by SPR using the same methods as described in Example 2.

For assay [5] the target is unchanged. In words: SPR, hVEGF-A121 captured by anti-His antibody, 37 C. The method, then:
as §2, §3

Assay [6] has as its target T2, VEGF (as used in the Biacore active …). In words: Biacore, normalized to unstressed aliquot; Fab stressed 2 w/40 C/pH 6.0. As to the method: as §1
Assay [7] has as its target T1, VEGF-121-His (inhouse production). In words: VEGF:VEGF-R1 inhibition ELISA (Example 4, as Example 2): 0.7 nM VEGF-121-His pre-incubated with the Fab, then added to plate-bound biotinylated VEGF-R1, anti-His POD detection; blocked partner: VEGF-R1. The method, then: Plates were incubated for 1 h at room temperature. […] Plates were incubated for 1 h at room temperature. […] After washing 3 times with 90 μl/well PBST-buffer, 25 μl/well detection antibody (anti His POD, Bethyl, #A190-114P, 1:12000) in 1×OSEP was added. After incubation for 1 h at room temperature plates were washed 3 times with 90 μl PBST-buffer. 25 μl TMB (Roche, #11 835 033 001) was added to all wells simultaneously. After 10 min incubation at room temperature, signals were detected at 370 nm/492 nm on a Tecan Safire 2 Reader.

Residue numbers refer to the chain shown, from its start. In names and notes the source's numbering stands.

B1: VEGF-P1AD8674 Fab (Fab, V domains shown)
VH: EVQLVESGGGLVQPGGSLRLSCAASGFTFTNYAMTWVRQAPGKGLEWVSSIGNGGGIYTYYADSVKGRFTISRNNAENTLYLQMNSLRAEDTAVYYCAKGDNLFDSWGPGTLVTVSS
VL: DIQMTQSPASLSASVGDRVTITCRASQSIYSSLNWYQQKPGKAPKLLIYASTLQSGVPSRFSGSASGTDFTLTISSLQPEDVATYYCQQYQNFPRTFGQGTKLEIKR
For B1, in assay [1], the binding result was “binds”.

B2: VEGF-P1AE3519 Fab (Fab, V domains shown)
VH: B1 VH with N53S, N74D, A76W, E77K
VL: B1 VL
notes: Control variant of VEGF-0089 with N52aS in H-CDR2 and S74W in H-FR3 (Kabat)
Consider B2, for which the “VEGF-binding activity after stress (relative active concentration)” value in assay [2], in assay [3] and in assay [6] was 102 each time. In addition, the Kd in assay [4] came out at 0.119 nM; in assay [5] it was 0.094 nM.

B3: VEGF-0112 Fab (Fab, V domains shown)
VH: B1 VH with N53S, N74D, A76S, E77K
VL: B1 VL
On to B3, for which, in assay [7], the binding result was “binds”.

What is called Kd is the constant that tells how readily two partners part at equilibrium. Higher therefore signals weaker binding.
